Columns and labels:
CCR6 (human) = molecular target: T1, CCR6 (human) (UniProt P51684); experiment: cell-based or functional assay
T1 sequence (looked up): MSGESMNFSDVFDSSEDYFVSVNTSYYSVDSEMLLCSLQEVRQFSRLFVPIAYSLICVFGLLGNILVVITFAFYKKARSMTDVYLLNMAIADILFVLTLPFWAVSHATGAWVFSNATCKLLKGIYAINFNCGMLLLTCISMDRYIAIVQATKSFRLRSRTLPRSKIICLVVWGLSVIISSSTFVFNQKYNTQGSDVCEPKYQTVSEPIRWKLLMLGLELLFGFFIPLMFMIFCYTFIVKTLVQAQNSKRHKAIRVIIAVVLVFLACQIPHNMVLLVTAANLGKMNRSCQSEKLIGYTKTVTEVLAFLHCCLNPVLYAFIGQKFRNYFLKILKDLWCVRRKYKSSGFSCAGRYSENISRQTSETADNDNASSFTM

CCR7 (human) = CCR7 (human) (UniProt P32248); experiment: cell-based or functional assay
Sequence of UniProt P32248 (P32248 25-378): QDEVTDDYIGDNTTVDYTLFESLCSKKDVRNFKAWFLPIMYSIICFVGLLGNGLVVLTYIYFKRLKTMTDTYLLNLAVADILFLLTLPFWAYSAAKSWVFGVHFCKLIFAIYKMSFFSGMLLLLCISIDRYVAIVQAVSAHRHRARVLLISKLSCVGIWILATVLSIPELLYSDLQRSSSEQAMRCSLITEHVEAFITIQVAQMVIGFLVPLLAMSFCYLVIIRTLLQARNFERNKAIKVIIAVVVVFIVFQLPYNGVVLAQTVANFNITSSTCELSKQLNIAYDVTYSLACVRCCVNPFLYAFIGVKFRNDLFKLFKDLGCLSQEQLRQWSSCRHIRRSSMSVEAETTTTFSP

| Ca2+ flux (Indo-1 fluorimetry) in immature CD34+-derived DC; concentration giving the maximal flux (CCR6 (human)) [ng/mL] | chemotaxis (Boyden microchamber) of DC precursors (CD1a-CD86-); concentration at which the response is detected (CCR6 (human)) [ng/mL] | chemotaxis (Boyden microchamber) of immature DC (CD1a+CD86-); concentration needed to attract the cells (CCR6 (human)) [ng/mL] | Ca2+ flux (Indo-1 fluorimetry) in mature CD34+-derived DC; concentration giving the maximal flux (CCR7 (human)) [ng/mL] | chemotaxis (Boyden microchamber) of mature DC (CD1a+CD86+); concentration needed to recruit the cells (CCR7 (human)) [ng/mL] | chemotaxis of CD40L-activated CD34+-derived DC; concentration required at 48 h (CCR7 (human)) [ng/mL] | Substance |
| --- | --- | --- | --- | --- | --- | --- |
| 30 | 1 to 10 | > 300 | – | – | – | Recombinant human MIP-3α (from UniProt P78556 27-96) (ligand) |
| – | – | – | 30 | 300 | 100 to 300 | Recombinant human MIP-3β (from UniProt Q99731 22-98) (ligand) |
